This note sets out measurements from patent US20170119913A1.

Numbered stars: 1 amine (or outer) side, 2 acyl side, 3 side chain; on linkers, the order of the positions; unused ones are H or OH. Square brackets hold non-standard residues; d marks the D form. * marks the point of attachment. DOTA = O=C(O)CN1CCN(CC(=O)O)CCN(CC(=O)*)CCN(CC(=O)O)CC1; Ttds = O=C(CCC(=O)[*:2])NCCCOCCOCCOCCCN[*:1]; Glutaryl = O=C(CCCC(=O)[*:2])[*:1]; Tle = CC(C)(C)[C@H](N)C(=O)O; 1206 = not defined here; GABA = NCCCC(=O)O

The target of assay [1] is neurotensin receptor 1 (NTR1), human, prepared from CHO cells recombinantly expressing the human receptor (human) (UniProt P30989). As to the kind of experiment: radioligand binding assay (Cerep 0109): displacement of 0.05 nM 125I-(Tyr3-neurotensin) from human NTR1 prepared from CHO cells.
Assay [2] concerns the target NTR1 on HT29 or NTR1-expressing HEK293 cells (UniProt P30989). As to the kind of experiment: cell-based or functional assay.
The target in assay [3] is T1, delta 2 (DOP) (h), delta2 opioid receptor (human (printed as (h))), P41143.
T1 chain: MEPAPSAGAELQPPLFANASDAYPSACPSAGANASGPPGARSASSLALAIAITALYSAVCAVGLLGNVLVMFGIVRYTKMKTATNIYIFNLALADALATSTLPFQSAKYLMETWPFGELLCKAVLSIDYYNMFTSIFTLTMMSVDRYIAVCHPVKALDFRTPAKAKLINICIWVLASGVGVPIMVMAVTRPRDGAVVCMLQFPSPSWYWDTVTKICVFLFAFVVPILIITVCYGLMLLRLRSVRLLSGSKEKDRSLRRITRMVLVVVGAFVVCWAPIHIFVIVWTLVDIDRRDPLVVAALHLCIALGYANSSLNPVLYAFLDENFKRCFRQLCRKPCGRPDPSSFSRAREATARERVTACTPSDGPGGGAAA
As to the kind of experiment: Cerep ExpresSProfile radioligand competition binding, reference compound (agonist radioligand). For orientation: Displacement assays read how much labelled ligand stays bound in the presence of the test substance.

neurotensin receptor 1 (NTR1), human, prepared from CHO cells recombinantly expressing the human receptor (human), sequence (P30989 whole entry): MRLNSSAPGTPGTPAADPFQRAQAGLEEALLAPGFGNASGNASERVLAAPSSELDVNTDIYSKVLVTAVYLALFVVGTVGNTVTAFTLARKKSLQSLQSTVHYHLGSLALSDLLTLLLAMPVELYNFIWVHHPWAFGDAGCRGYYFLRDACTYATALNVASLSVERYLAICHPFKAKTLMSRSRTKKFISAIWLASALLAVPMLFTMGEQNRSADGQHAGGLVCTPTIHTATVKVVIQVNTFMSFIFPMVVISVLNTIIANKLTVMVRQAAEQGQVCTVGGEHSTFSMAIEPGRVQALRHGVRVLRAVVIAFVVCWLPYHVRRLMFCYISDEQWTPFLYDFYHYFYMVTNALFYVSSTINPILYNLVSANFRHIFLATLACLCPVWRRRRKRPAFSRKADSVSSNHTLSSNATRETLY
NTR1 on HT29 or NTR1-expressing HEK293 cells, sequence (P30989 whole entry): as above

Usually IC50 stands for the midpoint of a concentration-inhibition curve. As to {1206-Glutaryl}-[Ttds][Ttds][Ttds]K(DOTA)[Ttds][Ttds][Ttds][GABA][dR]RPY[Tle]L-OH (reading uncertain) [1206-Glutar-Ttds3-Lys(DOTA)-Ttds3-GABA-arg-Arg-Pro-Tyr-Tle-Leu-OH (18)], in assay [1], the IC50 amounted to 2.7 nM. In addition, in assay [2], the Agonistic Effect EC50 [nM], functional Ca2+ mobilisation assay was > 50000 nM and the Antagonistic Effect IC50 [nM], functional Ca2+ mobilisation assay was 3.8 nM.
Usually Ki stands for the equilibrium dissociation constant of an inhibitor or competing ligand from its target. A low value points to a stronger hold on the target. YCGFC (modifications not checked) [DPDPE] displayed a Ki in assay [3] of 2 nM.
Turning to {1206-Glutaryl}-[Ttds]K(DOTA)[Ttds][GABA][dR]RPY[Tle]L-OH (reading uncertain) [1206-Glutar-Ttds-Lys(DOTA)-Ttds-GABA-arg-Arg-Pro-Tyr-Tle-Leu-OH (17)], the IC50 in assay [1] is 0.32 nM. In assay [2], this molecule registered an Agonistic Effect EC50 [nM], functional Ca2+ mobilisation assay of 7 nM and an Antagonistic Effect IC50 [nM], functional Ca2+ mobilisation assay of 3.4 nM.
Regarding {1206-Glutaryl}-[Ttds]K(DOTA)[Ttds][GABA]RRPY[Tle]L-OH (reading uncertain) [1206-Glutar-Ttds-Lys(DOTA)-Ttds-GABA-Arg-Arg-Pro-Tyr-Tle-Leu-OH (16)], the IC50 in assay [1] is 0.14 nM. Also, in assay [2], the Agonistic Effect EC50 [nM], functional Ca2+ mobilisation assay was determined as 4 nM and the Antagonistic Effect IC50 [nM], functional Ca2+ mobilisation assay stood at 3.8 nM.
